Four variants from IntAct's records for PubMed 30559189 can be followed below.

B1: Glycosylphosphatidylinositol-anchored high density lipoprotein-binding protein 1 (Homo sapiens), Q8IV16 (parent)
chain: MKALGAVLLALLLFGRPGRGQTQQEEEEEDEDHGPDDYDEEDEDEVEEEETNRLPGGRSRVLLRCYTCKSLPRDERCNLTQNCSHGQTCTTLIAHGNTESGLLTTHSTWCTDSCQPITKTVEGTQVTMTCCQSSLCNVPPWQSSRVQDPTGKGAGGPRGSSETVGAALLLNLLAGLGAMGARRP
partner: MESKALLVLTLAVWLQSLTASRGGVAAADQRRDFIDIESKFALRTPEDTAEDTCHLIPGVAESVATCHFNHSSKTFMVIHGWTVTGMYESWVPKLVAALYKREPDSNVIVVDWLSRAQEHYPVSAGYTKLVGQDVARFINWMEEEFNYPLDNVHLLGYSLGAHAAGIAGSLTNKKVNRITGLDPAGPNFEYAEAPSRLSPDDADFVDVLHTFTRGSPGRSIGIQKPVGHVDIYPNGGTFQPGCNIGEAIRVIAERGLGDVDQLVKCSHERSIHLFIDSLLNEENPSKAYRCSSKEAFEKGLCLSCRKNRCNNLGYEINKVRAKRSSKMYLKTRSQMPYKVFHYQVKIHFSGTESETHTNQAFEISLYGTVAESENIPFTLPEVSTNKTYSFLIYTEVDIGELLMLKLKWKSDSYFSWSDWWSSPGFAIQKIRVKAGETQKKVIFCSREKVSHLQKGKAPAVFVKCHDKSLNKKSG
B2: Lipoprotein lipase (Homo sapiens), P06858 (parent)
chain: B1 partner
partner: B1 chain

One experiment covers variants of B1. The note with it: with lipl_human LPL, P06858.
In the case of MKALGAVLLALLLFGRPGRGQTQQEEEEEDEDHGPDDYDEEDEDEVEEEETNRLPGGRSRVLLRCYTCKSLPRDERCNLTQNCSHGQTCTTLIAHGNTESGLLTTHSTSCTDSCQPITKTVEGTQVTMTCCQSSLCNVPPWQSSRVQDPTGKGAGGPRGSSETVGAALLLNLLAGLGAMGARRP [W109S], the “effect of a mutation on the interaction” value is “disrupting interaction strength”.

A further experiment covers variants of B2. Particulars: with hdbp1_human GPIHBP1, Q8IV16.
Take MESKALLVLTLAVWLQSLTASRGGVAAADQRRDFIDIESKFALRTPEDTAEDTCHLIPGVAESVATCHFNHSSKTFMVIHGWTVTGMYESWVPKLVAALYKREPDSNVIVVDWLSRAQEHYPVSAGYTKLVGQDVARFINWMEEEFNYPLDNVHLLGYSLGAHAAGIAGSLTNKKVNRITGLDPAGPNFEYAEAPSRLSPDDADFVDVLHTFTRGSPGRSIGIQKPVGHVDIYPNGGTFQPGCNIGEAIRVIAERGLGDVDQLVKCSHERSIHLFIDSLLNEENPSKAYRCSSKEAFEKGLCLSCRKNRCNNLGYEINKVRAKRSSKMYLKTRSQMPYKVFHYQVKIHFSGTESETHTNQAFEISLYGTVAESENIPFTLPEVSTNKTYSFLIYTEVDIGELLMLKLKWKSDSYFSWSDWWSSPGFAIQKIRVKAGETQKKVIFSSREKVSHLQKGKAPAVFVKCHDKSLNKKSG [C445S]: the “effect of a mutation on the interaction” value is “disrupting interaction strength”.

Take MESKALLVLTLAVWLQSLTASRGGVAAADQRRDFIDIESKFALRTPEDTAEDTCHLIPGVAESVATCHFNHSSKTFMVIHGWTVTGMYESWVPKLVAALYKREPDSNVIVVDWLSRAQEHYPVSAGYTKLVGQDVARFINWMEEEFNYPLDNVHLLGYSLGAHAAGIAGSLTNKKVNRITGLDPAGPNFEYAEAPSRLSPDDADFVDVLHTFTRGSPGRSIGIQKPVGHVDIYPNGGTFQPGCNIGEAIRVIAERGLGDVDQLVKCSHERSIHLFIDSLLNEENPSKAYRCSSKEAFEKGLCLSCRKNRCNNLGYEINKVRAKRSSKMYLKTRSQMPYKVFHYQVKIHFSGTESETHTNQAFEISLYGTVAESENIPFTLPEVSTNKTYSFLIYTEVDIGELLRLKLKWKSDSYFSWSDWWSSPGFAIQKIRVKAGETQKKVIFCSREKVSHLQKGKAPAVFVKCHDKSLNKKSG [M404R]: the “effect of a mutation on the interaction” value was “disrupting interaction strength”.

Variants of B2 are the subject of the next experiment. Particulars: with hdbp1_human GPIHBP1, Q8IV16. This is another data set of the same source.
For MESKALLVLTLAVWLQSLTASRGGVAAADQRRDFIDIESKFALRTPEDTAEDTCHLIPGVAESVATCHFNHSSKTFMVIHGWTVTGMYESWVPKLVAALYKREPDSNVIVVDWLSRAQEHYPVSAGYTKLVGQDVARFINWMEEEFNYPLDNVHLLGYSLGAHAAGIAGSLTNKKVNRITGLDPAGPNFEYAEAPSRLSPDDADFVDVLHTFTRGSPGRSIGIQKPVGHVDIYPNGGTFQPGCNIGEAIRVIAERGLGDVDQLVKCSHERSIHLFIDSLLNEENPSKAYRCSSKEAFEKGLCLSCRKNRCNNLGYEINKVRAKRSSKMYLKTRSQMPYKVFHYQVKIHFSGTESETHTNQAFEISLYGTVAESENIPFTLPEVSTNKTYSFLIYTEVDIGELLMLKLKWKSDSYFSWSDWWSSPGFAIQKIRVKAGETQKKVIFYSREKVSHLQKGKAPAVFVKCHDKSLNKKSG [C445Y], the “effect of a mutation on the interaction” value was “disrupting interaction strength”.
